Experimental data taken from PMC5454376 (2017).
Positions count from the first letter of the chain named. Like-named read-outs stand apart in the source and are kept apart here. Values belong to the binder of their own block, whether it stands above or below them. Where no end group is shown, it is not given here.

Assays:
[1] = biological target: Human His-Gαi3 W258 mutant (human, UniProt P08754 1-354); test: FP
[2] = biological target: Human His-Gαi3 K257 mutant (human, UniProt P08754 1-354); test: FP
[3] = biological target: Human His-Gαi3 L36 mutant (human, UniProt P08754 1-354); test: FP
[4] = biological target: Human His-Gαi3 I184 mutant (human, UniProt P08754 1-354); test: FP
[5] = biological target: Human His-Gαi3 G42 mutant (human, UniProt P08754 1-354); test: FP
[6] = biological target: Human His-Gαi3 F259 mutant (human, UniProt P08754 1-354); test: FP
[7] = biological target: Human His-Gαi3 V218 mutant (human, UniProt P08754 1-354); test: FP
[8] = biological target: Human His-Gαi3 L37 mutant (human, UniProt P08754 1-354); test: FP
[9] = biological target: Human His-Gαi3 L39 mutant (human, UniProt P08754 1-354); test: FP
Human His-Gαi3 L249H = Human His-Gαi3 L249H (human, UniProt P08754 1-354, L249H); test: FP
Gαi3 L249V = biological target: T1, Gαi3 L249V (Homo sapiens); test: FP
T1 chain: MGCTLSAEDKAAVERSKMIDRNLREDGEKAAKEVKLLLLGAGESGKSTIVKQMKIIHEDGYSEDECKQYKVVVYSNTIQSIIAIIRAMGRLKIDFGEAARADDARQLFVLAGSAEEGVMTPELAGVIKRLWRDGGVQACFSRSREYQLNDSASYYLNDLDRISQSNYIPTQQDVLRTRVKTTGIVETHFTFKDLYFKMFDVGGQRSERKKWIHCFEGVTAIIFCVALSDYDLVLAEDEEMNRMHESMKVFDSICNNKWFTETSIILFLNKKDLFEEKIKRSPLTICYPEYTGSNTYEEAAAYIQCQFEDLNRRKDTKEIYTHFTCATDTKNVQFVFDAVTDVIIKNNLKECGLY

Human His-Gαi3 W211A = Human His-Gαi3 W211A (human, UniProt P08754 1-354, W211A); test: FP
Human His-Gαi3 WT [10] = biological target: T2, Human His-Gαi3 WT (human, UniProt P08754 1-354); test: FP
T2 chain: T1 chain with V249L

Human His-Gαi3 S252A = Human His-Gαi3 S252A (human, UniProt P08754 1-354, S252 mutated to A); test: FP
Human His-Gαi3 S252D = Human His-Gαi3 S252D (human, UniProt P08754 1-354, S252D); test: FP
Human His-Gαi3 WT [11] = biological target: T2, Human His-Gαi3 WT; test: FP
[12] = biological target: T3, Human His-Gαi3 ΔC9 (lacking the last nine residues) (human, UniProt P08754 1-345); test: FP
T3 chain: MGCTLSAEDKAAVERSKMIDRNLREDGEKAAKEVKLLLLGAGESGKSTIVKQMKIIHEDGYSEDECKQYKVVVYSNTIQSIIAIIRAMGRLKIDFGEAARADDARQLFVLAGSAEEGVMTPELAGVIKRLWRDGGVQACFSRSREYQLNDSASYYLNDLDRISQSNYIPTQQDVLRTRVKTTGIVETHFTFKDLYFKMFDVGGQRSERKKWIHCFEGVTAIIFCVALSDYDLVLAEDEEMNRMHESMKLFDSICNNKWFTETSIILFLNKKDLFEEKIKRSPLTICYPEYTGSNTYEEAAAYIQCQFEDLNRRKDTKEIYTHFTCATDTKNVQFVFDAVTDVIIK

Human His-Gαi3 WT [13] = biological target: T2, Human His-Gαi3 WT; test: FP
Human His-Gαi3 N256A = Human His-Gαi3 N256A (human, UniProt P08754 1-354, N256 mutated to A); test: FP
[14] = biological target: T4, Human His-Gαi3 K317 mutant (human, UniProt P08754 1-354); test: FP; K317A
[15] = biological target: T4, Human His-Gαi3 K317 mutant; test: FP; K317W
[16] = biological target: T5, Full-length human Gαi3, untagged (NMR sample) (human, UniProt P08754 1-354); test: FP; His-tag cleaved Gαi3
T5 chain: T1 chain with V249L

[17] = biological target: Human His-Gαi3 R313 mutant (human, UniProt P08754 1-354); test: FP

Kd [1]: 63 nM
Kd [2]: 86 nM
Kd [3]: 119 nM
Kd [4]: 83 nM
Kd [5]: 98 nM
Kd [6]: 187 nM
Kd [7]: 104 nM
Kd [8]: 80 nM
Kd [9]: 176 nM
Kd (Human His-Gαi3 L249H): 266 nM
Kd (Gαi3 L249V): 84 nM
Kd (Human His-Gαi3 W211A): 61 nM
Kd (Human His-Gαi3 WT [10]): 54 nM
Kd (Human His-Gαi3 S252A): 35 nM
Kd (Human His-Gαi3 S252D): 336 nM
B1: Fluorescein-labelled RGS12 GoLoco peptide (residues 1,185–1,221) (peptide)
peptide: DEAEEFFELISKAQSNRADDQRGLLRKEDLVLPEFLR
modifications: not fully specified (N-terminus); also: 5,6-carboxyfluorescein coupled to resin-bound peptide after elongation, site not given here

Kd [1]: 1820 nM
Kd [2]: 870 nM
Kd [3]: 706 nM
Kd [4]: 1910 nM
Kd [5]: 377 nM
Kd [6]: 1260 nM
Kd [7]: 362 nM
Kd [8]: 478 nM
Kd [9]: 3080 nM
Kd (Human His-Gαi3 WT [11]): 580 nM
Kd [12]: 700 nM
Kd (Human His-Gαi3 WT [13]): 580 nM
Kd (Human His-Gαi3 L249H): 4410 nM
Kd (Human His-Gαi3 N256A): 1040 nM
Kd (Gαi3 L249V): 1370 nM
Kd (Human His-Gαi3 WT [10]): 581 nM
Kd (Human His-Gαi3 S252D): 3090 nM
Kd [14]: 590 nM
Kd [15]: 510 nM
Kd [16]: 680 nM
Kd [17]: 800 nM
B2: Fluorescein-labelled GIV peptide (residues 1,671–1,701) (peptide)
peptide: KTGSPGSEVVTLQQFLEESNKLTSVQIKSSS
modifications: not fully specified (N-terminus); also: 5,6-carboxyfluorescein coupled to resin-bound peptide after elongation, site not given here
